Experiment: yeast display, Sf9 membrane polyspecificity reagent, FACS + sequencing; frameworks hold sequencing errors
How it was run: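 Galactose-induced (36–48 hours) yeast carrying a synthetic nanobody display library were exposed to 10% biotinylated, detergent-solubilized Sf9 membrane reagent at 4 °C for 1 hour. FACS followed streptavidin microbead enrichment, using low and high (top ~1%) gates for expression (anti-HA) and reagent binding (streptavidin). Colony PCR, MiSeq 2 × 250 sequencing and CDR-length filtering followed. Labels for polyreactivity reflect the gate of origin.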

Sequence | polyreactivity (PSR sort gate)
QVQLVESGGGLVQAGGSLRLSCAASGRIFYANAMGWYRQAPGKERELVAAISSGGSTYYADSVKGRFTISRDNAKNTVYLKMYSLKPEDTAVYYCAASTVGQTFSYYVDTYDYWGQGTQVTVSS | low polyreactivity
QVQLVESGGGLVQAGGSLRLSCAASGRIFYANAMGWYRQAPGKERELVAGISSGGITNYADSVKGRFTISRDNAKITVYLQMNSLKPEDTAVYYCAVESWNRWRNRNDYWGQGTQVTVSS | low polyreactivity
QVQLVESGGGLVQAGGSLRLSCAASGRIFYAYAMGWYRQAPGKERELVAGISRGSSTNYADSVKGRFTISRDNAKNTVYLQMNSLKPEDTAVYYSAADVHRRGRYHSTYDYWGQGTQVTVSS | low polyreactivity
QVQLVESGGGLVQAGGSLRLSCAASGRIFYAYVMGWYRQAPGKERELVAAITSSGGSTYYADSVKGRFTISRDNAKNTVYLQMNSLKPEDTAVYYCNARSYPRWLRYDYWGQGTQVTVSS | low polyreactivity
QVQLVESGGGLVQAGGSLRLSCAASGRIFYAYVMGWYRQAPGKERELVADITSSGSTNYADSVKGRFTISRDNAKNTVYLQMNSLKPEDTAVYYCAKVPYAYQVRRKFGYWGQGTQVTVSS | low polyreactivity
QVQLVESGGGLVQAGGSLRLSCAASGRIFYDNTMGWYRQAPGKERELVAAISVSGGRTYYADSVKGRFTISRDNAKNTVYLQLNSLKPEDTAVYYCAADRGGEYWGQGTQVTVSS | high polyreactivity
QVQLVESGGGLVQAGGSLRLSCAASGRIFYEYAMGWYRQAPGKERELVAAITRGDSTYYADSVKGRFTISRDNAKNTVYLQMNSLKPEDTAVYFCNAGVFDYSGDSNYWGQGTQVTVSS | low polyreactivity
QVQLVESGGGLVQAGGSLRLSCAASGRIFYFNGMGWYRQAPGKERELVASISASGDRTYYADSVKGRFTISRDNAKNTVYLQMNSLKPEDTAVYYCATDANTYTKYDYWGQGTQVTVSS | low polyreactivity
QVQLVESGGGLVQAGGSLRLSCAASGRIFYFYAIGWYRQAPGKERELVASITSAGSTYYADSVKGRFTISRDNAKNTVYLQMNSLKPADTAVYYCARVRWGSRGGYIAYYGGGYWGQGTQVTVSS | high polyreactivity
QVQLVESGGGLVQAGGSLRLSCAASGRIFYFYAMGWYRQAPGKERELVAAISTSGGSTYYADSVKGRFTISRDNAKNTVYLQMNRLKPEDTAVYYCASRFRYYGSEYDYWGQGTQVTVSS | low polyreactivity
QVQLVESGGGLVQAGGSLRLSCAASGRIFYGNAMGWYRQAPGKERELVATISSSGGRTTYADSVKGRFTISRDNAKNTVYLQMNSLKPEDTAVYYCNARYRTRSLKYYYWGQGTQVTVSS | high polyreactivity
QVQLVESGGGLVQAGGSLRLSCAASGRIFYGNVIGWYRQAPGKERELVADIYYDGGSTYYADSVKGRFTISRDNAKNTVYLQMNSLKPEDTAVYYCNKREVFIYGTTYDYWGQGTQVTVSS | low polyreactivity
QVQLVESGGGLVQAGGSLRLSCAASGRIFYGNVMGWYRQAPGKERELVAVITSGGNTNYADSVKGRFTISRDNAKNTVYLQMNSLKPEDTAVYYCATAVVAGVWGYDYWGQGTQVSVSS | low polyreactivity
QVQLVESGGGLVQAGGSLRLSCAASGRIFYGYAMGWYRQAPGKERELVAAISSSGGSTYYADSVKGRFTISRDNAKNTVYLQMNSLKPEDTAVYYCNAQRYRPGYWYDYWGQGTQVTVSS | high polyreactivity
QVQLVESGGGLVQAGGSLRLSCAASGRIFYGYAMGWYRQAPGKERELVAAITWSGGRTYYADSVKGRFTISRDNAKNTVYLQMNSLKPEDTAVYYCNRPRRTSPSTYYHWGQGTQVTVSS | low polyreactivity
QVQLVESGGGLVQAGGSLRLSCAASGRIFYGYAMGWYRQAPGKERELVASISRRGSSTYYADSVKGRFTISRDNAMNTVYLQMNSLKPEDTAVYYCAAGYYPFNYWGQGTQVTVSS | high polyreactivity
QVQLVESGGGLVQAGGSLRLSCAASGRIFYHNAMGWYRQAPGKEREFVAAINWRGGNTYYADSVKGRFTISRDNAKITVYLQMNSLKPEDTAVYYCNALYKRYTDYDYWGQGTQVTVSS | high polyreactivity
QVQLVESGGGLVQAGGSLRLSCAASGRIFYHNAMGWYRQAPGKERELVAAISWSGGNTYYADSVKGRFTISRDNAKNTVYLQMNSLKPEDTAVYYCNRYWYRDRLWLYDYWGQGTQVTVSS | high polyreactivity
QVQLVESGGGLVQAGGSLRLSCAASGRIFYHNARGWYRQAPGKERELVAAIYSTGGSTYYADSVKGRFTISRDNAKNTVYLQMNSLKPEDTAVYYCATQYFRKYGYDYWGKGTQVTVSS | low polyreactivity
QVQLVESGGGLVQAGGSLRLSCAASGRIFYHYAMGWYRQAPGKERELVATISASGSRTSYADSVKGRFTISRDNAKNTVYLQMNSLKPEDTGVYYCAADAPFWYGLDYWGQGTQVTVSS | high polyreactivity
QVQLVESGGGLVQAGGSLRLSCAASGRIFYIHAMGWYRQAPGKERELVAAITSNGGSTYYADSVKGRFTISRDNAKNTVYLQMNCLKPEDTAVYYCAARRYKVSRTSYGYGYWGQGTQVTVSS | high polyreactivity
QVQLVESGGGLVQAGGSLRLSCAASGRIFYINAMGWYRQAPGKERELVAAISGSGGDTYYADSVKGRFTISRDNAKNTVYLQMNSMKPEDTAVYYCGAEVYTWGQGTQVTVSS | low polyreactivity
QVQLVESGGGLVQAGGSLRLSCAASGRIFYINAMGWYRQAPGKERELVAAITSNGGSTYYADSVKGRFTISRDNAKNTVYLQMNSLKPEDTSVYYCAVSPRVPFRKPVFTPYNMYYWGQGTQVTVSS | high polyreactivity
QVQLVESGGGLVQAGGSLRLSCAASGRIFYIYAMGWYRQAPGKERELVATITGSGGGTYYADSVKGRFTISRDNAKNTVYLQMNSLKPEDTAVYYCAAQVLTDPDNYWGQGTQVTVSS | low polyreactivity
QVQLVESGGGLVQAGGSLRLSCAASGRIFYKYAMGWYRQAPGKERELVAAISSGGNTNYADSVKGRFTISRDNAKNTVYLQMNSLKPEDTAVYYCNAKRAYYRGYYPDNYWGQGTQVTVSS | high polyreactivity
QVQLVESGGGLVQAGGSLRLSCAASGRIFYKYAMGWYRQAPGKERELVAVINRGGTTYYADSVKGRFTISRDNGKNTVYLQMNSLKPDDTAVYYCNTVADYRRFGYWGQGTQVTVSS | high polyreactivity
QVQLVESGGGLVQAGGSLRLSCAASGRIFYKYVMGWYRQAPGKERELVAAINRSGGTTYYADSVKGRFTISRDNAKNTVYLQMNSLKPEDTAVYYCNATLPDYWPYYYYQGGDDYWGQGTQVTVSS | low polyreactivity
QVQLVESGGGLVQAGGSLRLSCAASGRIFYLNVMGWYRQAPGKERELVAAITRRDVTTYADSVKGRFTISRDNAKNTVYLQMNSLKPEDTAVYYCNAEYVPYYEYESWGQGTQVTVSS | low polyreactivity
QVQLVESGGGLVQAGGSLRLSCAASGRIFYLYAMGWYRQAPGKERELVAGITSGGRTNYADSVKGRFTISRDNAKNTVYLQMNSLKPEDTAVYYCAAFYWGRYTGYYWGQGTQVTVSS | high polyreactivity
QVQLVESGGGLVQAGGSLRLSCAASGRIFYLYAMGWYRQAPGKERELVAGITSGGRTNYADSVKGRFTISRDNAKNTVYLQMNSLKPEDTAVYYCAAYYWGRYTGYYWGQGTQVTVSS | high polyreactivity

Source: the nanobody polyreactivity screen of Harvey et al. (2022)
